{"source": "patent EP2112164A1", "about": "(Institut Pasteur Of Shanghai, dated 2009)", "binders": {"B1": {"name": "scFv/hinge/his-tag/DAF (anti-HIV-1 gp41 scFv derived from human monoclonal antibody TG15, human IgG3 hinge region, 6 x his tag, GPI anchor replacement signal … (scFv)", "scFv": "QVQLQQWGAGLLKPSETLSLTCAVYGDSFGGHHWSWIRQPPGKGLEWIGEINFLGNTNYNPSLKSRVAISKDTSKNQFSLTLNSATAADTAVYFCARRETMETASRKRAFDIWGQGTMETVTVSAGGGGSGGGGSGGGGSAELMETTQSPPTLSASVGDRVTITCRASQSLSGWVAWYQQKPGKAPKLLIYKASTLESGVPSRFSGSGSGTVFALTISSLQPDDSATYYCQQHSAFSSTFGQGTKLEIKRTPLGDTTHTSGHHHHHHGSGTTSGTTRLLSGHTCFTLTGLLGTLVTMETGLLT"}}, "key": {"[1]": {"molecular_target": "HIV-1 envelope pDOL (subtype B) (HIV-1 (subtype B))", "assay": "cell-based or functional assay"}, "[2]": {"molecular_target": "HIV-1 envelope Q168 (subtype A) (HIV-1 (subtype A))", "assay": "cell-based or functional assay"}}}
{"binder": "B1", "values": [{"measurement": "relative luciferase activity (RLA) in a single-cycle pseudotype infectivity assay, CEMss-GPI-scFv compared to CEMss-eGFP", "setting": "[1]", "value": 8, "unit": "fold reduction"}, {"measurement": "relative luciferase activity (RLA) in a single-cycle pseudotype infectivity assay, CEMss-GPI-scFv compared to CEMss-eGFP", "setting": "[2]", "value": 180, "unit": "fold reduction"}]}
